Reference: patent US20230303685A1 (ELECTRA THERAPEUTICS, published 2023)
One block for each binder: values may come before it.

Legend:
[1] = target: T1, human SIRPα V1-His monomer (human, UniProt P78324 31-373, limits assumed); assay: BLI (Octet); antibody on anti-mouse IgG capture tip, SIRP-His monomer at 100, 33.3, 11.1 nM, 1:1 fit, mean KD
T1 construct: 'SIRP-His monomer protein' of the Octet assay; also called SIRP-His; not shown: His tag
Summary of the method: (§1)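 Rat/mouse-Fc antibodies captured on anti-mouse IgG tips; human-Fc antibodies cleaved with gingipain K to monomeric F(ab′), biotinylated, loaded on streptavidin tips. SIRP-His association then wash-buffer dissociation; 1:1 model fitted per concentration, KD as kdis/kon averaged over concentrations.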

human SIRPβ1-His monomer [2] = target: T2, human SIRPβ1-His monomer (human, UniProt O00241 30-371); assay: as above
T2 construct: 'SIRP-His monomer protein' of the Octet assay; also called SIRP-His; not shown: His tag
Summary of the method: as §1

human SIRPγ-His monomer [3] = target: T3, human SIRPγ-His monomer (human); assay: as above
T3 construct: 'SIRP-His monomer protein' of the Octet assay; also called SIRP-His; not shown: His tag
Summary of the method: as §1

[4] = target: T4, human SIRPα V1 extracellular domain, monomeric (human, UniProt P78324 31-373); assay: SPR (Biacore); antibody captured by anti-IgG on chip, monomeric SIRPα extracellular domain as analyte, 1:1 model
T4 construct: also called hSIRPα V1

[5] = target: T5, cynomolgus monkey SIRPα extracellular domain, monomeric (cynomolgus monkey, UniProt A0A2K5VYQ9 31-372); assay: as above
T5 construct: extracellular domain; also called Cyno SIRPα

Human SIRPγ = target: T6, Human SIRPγ; assay: ELISA, extracellular domain coated at 2 µg/mL, purified antibody titrated, anti-rat or anti-mouse IgG, chemiluminescence
T6 construct: also called human SIRPγ extracellular domain, plate-coated
T6 chain: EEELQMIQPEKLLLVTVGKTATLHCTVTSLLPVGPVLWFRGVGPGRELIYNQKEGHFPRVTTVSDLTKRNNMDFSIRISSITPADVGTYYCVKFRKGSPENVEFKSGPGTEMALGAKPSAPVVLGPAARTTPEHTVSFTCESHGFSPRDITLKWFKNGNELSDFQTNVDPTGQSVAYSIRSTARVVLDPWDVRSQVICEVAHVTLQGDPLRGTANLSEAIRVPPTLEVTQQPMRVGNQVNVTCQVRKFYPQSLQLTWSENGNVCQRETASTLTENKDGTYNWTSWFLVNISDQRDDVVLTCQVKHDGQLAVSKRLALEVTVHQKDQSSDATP
Method: (§2) Select SIRP antibodies were purified by Protein G from hybridoma supernatants and analyzed in a titration via ELISA. Briefly, 2 μg/mL of extracellular domain of each of the SIRPs was coated onto high protein-binding plates and blocked. Purified antibodies were added in a titration to the coated plates. The antibodies were detected by an anti-rat IgG or an anti-mouse IgG antibody and a chemiluminescent substrate.

Cynomolgus Monkey SIRPβ1 = target: T7, Cynomolgus Monkey SIRPβ1 (Macaca fascicularis); assay: as above
T7 construct: extracellular domain; also called cyno SIRPβ1 extracellular domain, plate-coated
Method: as §2

[6] = target: T4, human SIRPα V1 extracellular domain, …; assay: as above
Method: as §2

[7] = target: T5, cynomolgus monkey SIRPα extracellular …; assay: as above
Method: as §2

[8] = target: T8, Human SIRPγ conjugated to an Fc region (human); assay: BLI blocking; 200 nM antibody pre-incubated with 20 nM SIRPγ-Fc, binding to immobilised CD47-His (competitor), % of response of SIRPγ-Fc alone
T8 construct: also called SIRPγ-Fc; SIRP-Fc; not shown: Fc region

[9] = target: T1, human SIRPα V1-His monomer; assay: BLI (Octet); biotinylated monomeric F(ab') on streptavidin tip, SIRP-His monomer at 100, 33.3, 11.1 nM, 1:1 fit, mean KD
Method: (§3) Select SIRP antibodies were tested for their affinities to human SIRPα, SIRPβ1, and SIRPγ using a biolayer interferometry (BLI) Octet system (Pall ForteBio). Each SIRP antibody with rat or mouse Fc was immobilized on a biosensor tip by an anti-mouse IgG capture (AMC). Antibodies with human Fc were digested with gingipain K enzyme to yield monomeric F(ab′), biotinylated, then coated onto streptavidin biosensors. […] The biosensors were then exposed to wash buffer to measure off-rate kinetics. The resulting kinetic data were analyzed and fitted using a 1:1 binding model with kₒₙ and kdis fitted separately at each SIRP-His protein concentration. KD affinities were calculated as kdis to kₒₙ ratio at each concentration of SIRP-His and averaged.

human SIRPβ1-His monomer [10] = target: T2, human SIRPβ1-His monomer; assay: as above
Method: as §3

human SIRPγ-His monomer [11] = target: T3, human SIRPγ-His monomer; assay: as above
Method: as §3

T2 sequence (O00241 30-371): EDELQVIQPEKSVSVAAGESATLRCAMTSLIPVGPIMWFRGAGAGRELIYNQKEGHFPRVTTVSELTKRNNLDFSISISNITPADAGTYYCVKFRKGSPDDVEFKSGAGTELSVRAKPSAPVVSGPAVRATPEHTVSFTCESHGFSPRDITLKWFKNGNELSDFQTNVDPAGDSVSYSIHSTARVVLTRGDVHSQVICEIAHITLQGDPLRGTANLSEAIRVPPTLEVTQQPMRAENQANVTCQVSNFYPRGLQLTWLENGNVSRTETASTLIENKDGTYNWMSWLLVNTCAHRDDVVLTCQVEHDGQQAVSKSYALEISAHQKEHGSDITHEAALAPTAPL
T8 sequence (Q9P1W8 whole entry): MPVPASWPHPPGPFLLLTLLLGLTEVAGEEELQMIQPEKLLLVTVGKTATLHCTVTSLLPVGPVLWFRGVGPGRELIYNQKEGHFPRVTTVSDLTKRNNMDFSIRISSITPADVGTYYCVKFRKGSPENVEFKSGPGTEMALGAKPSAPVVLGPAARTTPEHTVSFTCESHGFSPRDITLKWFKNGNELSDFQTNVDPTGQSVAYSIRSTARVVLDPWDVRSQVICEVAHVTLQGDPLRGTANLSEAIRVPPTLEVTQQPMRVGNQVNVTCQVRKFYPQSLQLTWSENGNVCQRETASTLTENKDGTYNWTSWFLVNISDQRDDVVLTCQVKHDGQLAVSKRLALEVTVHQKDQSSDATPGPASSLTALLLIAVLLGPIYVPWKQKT

Kd [1]: 37.1 nM
Kd (human SIRPβ1-His monomer [2]): 3520 nM
Kd (human SIRPγ-His monomer [3]): 973 nM
Kd [4]: 579 nM
Kd [5]: 581 nM
EC50 (read off the curve) (Human SIRPγ): ~0.2 µg/mL
EC50 (read off the curve) (Cynomolgus Monkey SIRPβ1): ~0.2 µg/mL
EC50 (read off the curve) [6]: ~0.1 µg/mL
EC50 (read off the curve) [7]: ~0.1 µg/mL
SIRPγ-CD47 Response (%) [8]: 110%
B1: Antibody 1 (antibody, V domains shown)
VH: QVQLQESGPGLVKPSGTLSLTCAVSGGSISSSNWWSWVRQPPGKGLEWIGEIYHSGSTNYNPSLKSRVTISVDKSKNQFSLKLSSVTAADTAVYYCARRGIWFGVGPWGQGTLVTVSS
VL: DIVMTQSPLSLPVTPGEPASISCRSSQSLLHGNGFNYLDWYLQKPGQSPQLLIYLGSNRASGVPDRFTGSGSGTDFTLKISRVEAEDVGVYYCMQGLQTPRTFGQGTKVEIK
notes: Human variable region, rat IgG2b Fc; from hybridoma

Kd [9]: 14.9 nM
Kd (human SIRPβ1-His monomer [10]): 555 nM
Kd (human SIRPγ-His monomer [11]): 1340 nM
B2: Antibody 28, monomeric F(ab') (gingipain K digest, biotinylated) (Fab, V domains shown)
VH: B1 VH
VL: B1 VL
modifications: biotinylated (site not stated)
